Assay [1] concerns the target p85β iSH2 (UniProt O00459). The following applies: cited from earlier work.
Assay [2] has as its target NS1 ED (Influenza A virus) (UniProt P69278). The following applies: cited from earlier work.
In assay [3] the target is T1, p85β iSH2 (UniProt O00459).
T1 chain: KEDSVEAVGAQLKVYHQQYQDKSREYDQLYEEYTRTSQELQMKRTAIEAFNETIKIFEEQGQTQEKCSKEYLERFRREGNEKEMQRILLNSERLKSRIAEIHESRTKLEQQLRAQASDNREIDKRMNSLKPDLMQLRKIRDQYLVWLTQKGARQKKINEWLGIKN

In paper PMC7150778 (2020) one finds Kd data, which are given here for 4 molecules.

What is called Kd is the constant that tells how readily two partners part at equilibrium.

Read-outs that look alike come from different tables or passages of the source.

Turning to 1918 NS1 ED-CTT (from UniProt Q0PDM0), in assay [1], the dissociation constant (Kd) was 300 nM.

NS1 ED (from UniProt P69278): the Kd in assay [2] is 89000 nM.

B1: 1918 NS1 ED-ΔCTT (protein)
chain: TMASVPASRYLTDMTLEELSRDWSMLIPKQKVAGPLCIRMDQAIMDKNIILKANFSVIFDRLETLILLRAFTEEGAIVGEISPLPSLPGHTAEDVKNAVGVLIGGLEWNDNTVRVSETLQRFAWRSSNENGRPPLTPKQKREMAGTIRSEV
For B1, in assay [3], the Kd was found to be 370 nM.

B2: 1918 NS1 ED-CTT (protein)
chain: B1 chain
For B2, in assay [3], the Kd worked out at 700 nM.
